Results taken from patent US20250109190A1 (BYOMASS, published 2025).
Residue numbers refer to the chain shown, from its start.

B1: Antibody G (Clone G), IgG (antibody, V domains shown)
VH: QVQLVQSGAEVKKPGASVKVSCKASGYTFTSYYIHWVRQAPGQGLEWMGAIYAYSGDTNYAQKLQGRVTMTTDTSTSTAYMELRSLRSDDTAVYYCARARDIAAAGLGAFDYWGQGTLVTVSS
VL: EIVLTQSPGTLSLSPGERATLSCRASQSVRSSYLAWYQQKPGQAPRLLIYGASSRATGIPDRFSGSGSGTDFTLTISRLEPEDFAVYYCQQYSNYPRTFGGGTKVEIKR
notes: IgG
B2: Antibody I (Clone I), IgG (antibody, V domains shown)
VH: QVQLVQSGAEVKKPGSSVKVSCKASGGTFSNYAISWVRQAPGQGLEWMGYIIPFFGTANYAQKFQGRVTITADESTSTAYMELSSLRSEDTAVYYCARGGSGYSTSWGSSLYWGQGTLVTVSS
VL: B1 VL with R30S, S54Y, Q90L, Y92S, S93G, N94V, Y95F, R97Y
notes: IgG
B3: Antibody O (Clone O), IgG (antibody, V domains shown)
VH: QVQLVQSGAEVKKPGSSVKVSCKASGGTFSNYDINWVRQAPGQGLEWMGGIIPVFGTAAYAQKFQGRVTITADESTSTAYMELSSLRSEDTAVYYCAREARDGYRYAFQHWGQGTLVTVSS
VL: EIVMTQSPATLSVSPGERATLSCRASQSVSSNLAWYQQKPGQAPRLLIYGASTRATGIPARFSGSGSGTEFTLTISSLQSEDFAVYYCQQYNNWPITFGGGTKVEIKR
notes: IgG
B4: Antibody K (Clone K), IgG (antibody, V domains shown)
VH: QVQLVQSGAEVKKPGSSVKVSCKASGGTSSSYAISWVRQAPGQGLEWMGYIIPAFGTANYAQKFQGRVTITADESTSTAYMELSSLRSEDTAVYYCARPVRTYPLGKYFYHWGQGTLVTVSS
VL: EIVLTQSPATLSLSPGERATLSCRASQSVSSYLAWYQQKPGQAPRLLIYDASNRATGIPARFSGSGSGTDFTLTISSLEPEDFAVYYCQQDSIFPPYTFGGGTKVEIKR
notes: IgG
B5: Antibody Q (Clone Q), IgG (antibody, V domains shown)
VH: QVQLVQSGAEVKKPGSSVKVSCKASGGSFSPYTWSWVRQAPGQGLEWMGGIIPISGTANTAQKFQGRVTITADESTSTAYMELSSLRSEDTAVYYCARGGPLSGWRASYYYWGQGTLVTVSS
VL: not shown
notes: IgG
B6: Antibody R (Clone R), IgG (antibody, V domains shown)
VH: B5 VH with W34I, P53L, I54T, T60Y
VL: not shown
notes: IgG

The binders below were run against human GDF8 (human, UniProt O14793 267-375) (assay: BLI Octet; IgG, avid).

Binding result, no binding (tested: 100 nM):
B1
B2
B3
B4
B5
B6

The binders below were run against T1, GDF15 Fc (UniProt Q99988 197-308, limits assumed) (assay: BLI Octet; IgG, avid).
T1 construct: species not given; not shown: Fc part of the fusion
T1 sequence (looked up): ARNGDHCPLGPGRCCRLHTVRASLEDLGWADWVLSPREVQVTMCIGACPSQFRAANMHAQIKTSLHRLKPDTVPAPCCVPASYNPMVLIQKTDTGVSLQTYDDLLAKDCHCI

Binding result, no binding (tested: 100 nM):
B1
B2
B3
B4
B5
B6

The binders below were run against T2, Activin B (UniProt P09529 293-407) (assay: BLI Octet; IgG, avid).
T2 sequence (looked up): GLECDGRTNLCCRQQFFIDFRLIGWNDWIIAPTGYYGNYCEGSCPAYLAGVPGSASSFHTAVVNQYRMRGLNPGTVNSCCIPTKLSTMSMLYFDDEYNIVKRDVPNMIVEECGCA

Binding result, no binding (tested: 100 nM):
B1
B2
B3
B4
B5
B6

These binders were tested against T3, human GDNF (human, UniProt P39905 78-211, limits assumed) (assay: BLI Octet; IgG, avid).
T3 sequence (looked up): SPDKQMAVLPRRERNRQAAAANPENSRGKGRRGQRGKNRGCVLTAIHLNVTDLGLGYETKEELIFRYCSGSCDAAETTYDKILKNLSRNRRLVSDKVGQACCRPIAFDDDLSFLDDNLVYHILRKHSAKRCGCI

Binding result, no binding (tested: 100 nM):
B1
B2
B3
B4
B5
B6

These binders were tested against T4, BMP9 (UniProt Q9UK05 320-429) (assay: BLI Octet; IgG, avid).
T4 sequence (looked up): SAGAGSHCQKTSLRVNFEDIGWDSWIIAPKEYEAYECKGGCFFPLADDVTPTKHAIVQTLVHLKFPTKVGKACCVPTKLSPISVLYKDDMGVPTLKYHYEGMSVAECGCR

Binding result, no binding (tested: 100 nM):
B1
B2
B3
B4
B5
B6

These binders were tested against human GDF11 (human, UniProt O95390 299-407) (assay: BLI Octet; IgG, avid).
Sequence of human GDF11 (O95390 299-407 limits assumed): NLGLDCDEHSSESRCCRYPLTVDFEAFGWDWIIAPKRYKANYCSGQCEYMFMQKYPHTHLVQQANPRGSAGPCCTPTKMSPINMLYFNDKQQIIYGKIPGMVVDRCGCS

Binding result, no binding (tested: 100 nM):
B1
B2
B3
B4
B5
B6

The binders below were run against T5, BMP10 (UniProt O95393 317-424) (assay: BLI Octet; IgG, avid).
T5 sequence (looked up): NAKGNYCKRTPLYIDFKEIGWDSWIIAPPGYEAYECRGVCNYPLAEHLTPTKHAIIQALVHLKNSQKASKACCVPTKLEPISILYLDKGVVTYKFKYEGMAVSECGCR

Binding result, no binding (tested: 100 nM):
B1
B2
B3
B4
B5
B6

These binders were tested against T6, human GDF10 (human, UniProt P55107 369-478) (assay: BLI Octet; IgG, avid).
T6 sequence (looked up): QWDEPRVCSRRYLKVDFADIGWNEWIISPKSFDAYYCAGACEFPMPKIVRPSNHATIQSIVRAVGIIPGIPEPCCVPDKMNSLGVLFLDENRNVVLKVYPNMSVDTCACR

Binding result, no binding (tested: 100 nM):
B1
B2
B3
B4
B5
B6
